Test results reported in article PMC5623714, “Cofactor Tail Length Modulates Catalysis of Bacterial F420-Dependent Oxidoreductases” (Frontiers in Microbiology, 2017).
One block for each molecule: values may come before it.

Columns and labels:
[1] = molecular target: T1, Fgd (F420-dependent glucose 6-phosphate dehydrogenase MSMEG_0777) (Mycolicibacterium smegmatis, UniProt A0QQJ4); assay: intrinsic tryptophan fluorescence quenching; format: binding
T1 construct: recombinant in E. coli BL21(DE3), Ni-NTA purified; LLHT family
T1 sequence (A0QQJ4 2-336): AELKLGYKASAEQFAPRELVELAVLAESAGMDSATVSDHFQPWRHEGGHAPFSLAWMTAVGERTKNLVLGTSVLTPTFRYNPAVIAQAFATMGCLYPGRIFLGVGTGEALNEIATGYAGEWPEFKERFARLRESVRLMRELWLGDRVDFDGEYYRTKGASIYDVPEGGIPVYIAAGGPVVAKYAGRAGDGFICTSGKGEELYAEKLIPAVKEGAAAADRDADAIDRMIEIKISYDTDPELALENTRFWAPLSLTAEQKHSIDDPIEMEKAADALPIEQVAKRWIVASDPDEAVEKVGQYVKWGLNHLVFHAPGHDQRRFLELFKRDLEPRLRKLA
From the text: intrinsic tryptophan fluorescence quenching on Fgd (F420-dependent glucose 6-phosphate dehydrogenase MSMEG_0777)

[2] = molecular target: T2, MSMEG_3380 (promiscuous F420H2-dependent reductase, FDOR-B) (Mycolicibacterium smegmatis, UniProt A0QXP8); assay: intrinsic tryptophan fluorescence quenching; format: binding; conditions: read-out: F420 Kd
T2 construct: recombinant in E. coli BL21(DE3), Ni-NTA purified; dimer
From the text: intrinsic tryptophan fluorescence quenching on MSMEG_3380 (promiscuous F420H2-dependent reductase, FDOR-B)

[3] = molecular target: T3, MSMEG_2027 (F420H2-dependent quinone reductase, FDOR-A) (Mycolicibacterium smegmatis, UniProt A0QU01); assay: intrinsic tryptophan fluorescence quenching; format: binding; conditions: read-out: F420 Kd
T3 construct: recombinant in E. coli BL21(DE3), Ni-NTA purified; monomer
T3 sequence (A0QU01 1-140): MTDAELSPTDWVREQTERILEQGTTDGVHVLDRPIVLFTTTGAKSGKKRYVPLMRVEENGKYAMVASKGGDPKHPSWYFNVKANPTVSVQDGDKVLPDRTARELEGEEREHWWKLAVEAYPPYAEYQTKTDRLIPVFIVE
From the text: intrinsic tryptophan fluorescence quenching on MSMEG_2027 (F420H2-dependent quinone reductase, FDOR-A)

[4] = substrate: CC1=CC(=O)c2ccccc2C1=O; assay: purified protein; format: biochemical, Mycolicibacterium smegmatis; conditions: 50 μM long-chain F420H2 (mycobacterial), 200 mM TrisHCl, 0.1% Triton X-100, pH 8.0
[5] = substrate: O=C1C=CCCC1; assay: purified protein; format: biochemical, Mycolicibacterium smegmatis; conditions: 50 μM long-chain F420H2 (mycobacterial), 200 mM TrisHCl, 0.1% Triton X-100, pH 8.0

Kd [1]: 4180 ± 290 nM
Kd [2]: 570 ± 50 nM
Kd [3]: 1430 ± 120 nM
Molecule: C[C@H](OP(=O)(O)OC[C@@H](O)[C@@H](O)[C@@H](O)Cn1c2nc(=O)[nH]c(=O)c-2cc2ccc(O)cc21)C(=O)N[C@@H](CCC(=O)N[C@@H](CCC(=O)O)C(=O)O)C(=O)O [F420-2, short-chain F420]

B1: MSMEG_2027 (F420H2-dependent quinone reductase, FDOR-A) (Mycolicibacterium smegmatis MC2 155) (protein)
chain: T3 sequence (A0QU01 1-140)
notes: recombinant in E. coli BL21(DE3), Ni-NTA purified; monomer
Km [4]: 25.6 ± 9.2 µM
kcat [4]: 0.084 ± 0.007 s⁻¹
kcat/Km [4]: 3280 M⁻¹ s⁻¹

B2: MSMEG_3380 (promiscuous F420H2-dependent reductase, FDOR-B) (Mycolicibacterium smegmatis MC2 155) (protein)
chain: MVAVPEGYESLLERPLYGHLATVRPDGTPQVNAMWFAWDGEVLRFTHTTKRQKYRNIKANPAVAMSVIDPDNPYRYLEVRGLVEDIVPDPTGAFYLKLNDRYDGPLTEPPADKADRVIIVVRPTAFSKQ
notes: recombinant in E. coli BL21(DE3), Ni-NTA purified; dimer
Km [5]: 259 ± 41 µM
kcat [5]: 0.025 ± 0.001 s⁻¹
kcat/Km [5]: 96 M⁻¹ s⁻¹
